Key:
[1] = target: T1, recombinant monkey PD-1 protein (monkey, UniProt B0LAJ3 25-170, Biotinylated in the Octet assay; the site of biotinylation is not stated.); assay: Octet (BLI), biotinylated monkey PD-1
T1 construct: Bought protein; also called biotinylated monkey PD-1 protein

[2] = target: T1, recombinant monkey PD-1 protein; assay: indirect ELISA, coated antigen titrated, antibody at 2 µg/mL
[3] = target: T2, recombinant human PD-1 protein (Sino Biological, Inc, Cat. 10377-H08H) (human, UniProt Q15116 25-167); assay: competition ELISA: coated recombinant human PD-1, blocked ligand PD-L1-Fc-biotin, antibody at three concentrations
T2 sequence (Q15116 25-167 limits assumed): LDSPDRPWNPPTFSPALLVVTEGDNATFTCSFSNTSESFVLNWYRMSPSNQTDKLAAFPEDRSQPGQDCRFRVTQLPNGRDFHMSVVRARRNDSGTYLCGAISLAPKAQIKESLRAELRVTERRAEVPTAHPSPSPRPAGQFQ

[4] = target: T2, recombinant human PD-1 protein (Sino …); assay: monoclonal phage ELISA on recombinant human PD-1 protein
[5] = target: T3, recombinant mouse PD-1 protein (mouse, UniProt Q02242 25-167, limits assumed, biotinylated in the Octet assay); assay: Octet biolayer interferometry on biotinylated mouse PD-1 protein
T3 construct: Bought protein; also called murine PD-1; biotinylated mouse PD-1 protein
T3 sequence (looked up): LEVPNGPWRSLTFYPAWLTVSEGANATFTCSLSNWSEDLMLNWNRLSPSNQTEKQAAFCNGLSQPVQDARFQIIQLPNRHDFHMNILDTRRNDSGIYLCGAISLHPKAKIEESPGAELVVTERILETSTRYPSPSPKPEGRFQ

[6] = target: T1, recombinant monkey PD-1 protein; assay: indirect ELISA, coated antigen titrated (antigenic EC50), antibody at 2 µg/mL
[7] = target: T4, biotinylated FCGRT-His+B2M protein (human, UniProt P55899 24-297; P61769 21-119, biotinylated); assay: ELISA at pH 6.0, biotinylated FCGRT-His+B2M captured on avidin, antibody at 270 µg/mL
T4 construct: Bought from Sino Biological; also called recombinant human FcRn protein; human FcRn protein
T4 sequence (P55899 24-297 limits assumed, chain 1 of 2): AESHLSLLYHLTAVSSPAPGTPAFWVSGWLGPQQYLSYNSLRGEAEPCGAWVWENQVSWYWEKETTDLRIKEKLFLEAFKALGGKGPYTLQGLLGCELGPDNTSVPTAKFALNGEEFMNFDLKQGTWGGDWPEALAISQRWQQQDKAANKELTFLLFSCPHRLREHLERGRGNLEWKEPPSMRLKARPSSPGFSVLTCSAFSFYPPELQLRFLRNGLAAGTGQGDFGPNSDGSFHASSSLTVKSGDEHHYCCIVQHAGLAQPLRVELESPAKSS
T4 sequence (P61769 21-119 limits assumed, chain 2 of 2): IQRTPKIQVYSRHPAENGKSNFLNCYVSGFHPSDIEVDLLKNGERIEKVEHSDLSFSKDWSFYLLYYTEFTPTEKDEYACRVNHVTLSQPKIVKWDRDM

[8] = target: T5, recombinant CD16a-AVI-His (V158)+BirA protein (UniProt P08637 17-208, +BirA (AVI tag, detected with streptavidin/HRP)); assay: ELISA: antibody titrated on coated recombinant human PD-1, then recombinant CD16a-AVI-His (V158)+BirA with streptavidin/HRP
T5 construct: Bought from Sino Biological; It is the V158 allotype as printed; also called recombinant CD16a (V158) protein; recombinant CD16a protein
T5 sequence (P08637 17-208 F176V limits assumed): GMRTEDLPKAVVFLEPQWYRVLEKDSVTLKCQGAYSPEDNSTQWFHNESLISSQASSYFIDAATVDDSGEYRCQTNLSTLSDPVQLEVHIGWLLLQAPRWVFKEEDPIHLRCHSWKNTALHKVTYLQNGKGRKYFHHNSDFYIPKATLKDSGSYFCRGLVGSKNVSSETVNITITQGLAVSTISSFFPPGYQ

T1 sequence (B0LAJ3 entry or part of it limits assumed): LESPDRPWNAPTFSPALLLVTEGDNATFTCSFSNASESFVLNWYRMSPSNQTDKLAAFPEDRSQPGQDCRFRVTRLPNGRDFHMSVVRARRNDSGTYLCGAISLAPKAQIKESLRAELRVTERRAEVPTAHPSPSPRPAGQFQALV

B1: Nivolumab (antibody, V domains shown)
VH: QVQLVESGGGVVQPGRSLRLDCKASGITFSNSGMHWVRQAPGKGLEWVAVIWYDGSKRYYADSVKGRFTISRDNSKNTLFLQMNSLRAEDTAVYYCATNDDYWGQGTLVTVSS
VL: EIVLTQSPATLSLSPGERATLSCRASQSVSSYLAWYQQKPGQAPRLLIYDASNRATGIPARFSGSGSGTDFTLTISSLEPEDFAVYYCQQSSNWPRTFGQGTKVEIK
Kd [1]: 0.131 nM | EC50 [2]: 0.0802 mg/L

B2: murine antibody PD1-M944 (antibody, mouse IgG1, V domains shown)
VH: EVQLVESGGGLVKPGGSLKLSCAASGFTFSSYGMSWVRQTPEKRLEWVATISGGGRDTYYSDSVKGRFTVSRDNAKNNLFLQMSSLRSEDTALYYCSRQYGTVWFFNWGQGTLVTVSA
VL: not shown
notes: Full antibody with mouse IgG1 heavy chain constant region and mouse kappa light chain constant region; Expressed in HEK-293 cells
binding result [3]: binds

B3: M944 scFv antibody (scFv)
scFv: DIVLTQSPASLAVSLGQRATISCRASESVDSYGNSFMHWYQQKPGQPPKLLIYAASNQGSGVPARFSGSGSGTDFSLNIHPMEEDDTAMYFCQQSKEVPWTFGGGTKLEIKSSGGGGSGGGGGGSSRSSEVQLVESGGGLVKPGGSLKLSCAASGFTFSSYGMSWVRQTPEKRLEWVATISGGGRDTYYSDSVKGRFTVSRDNAKNNLFLQMSSLRSEDTALYYCSRQYGTVWFFNWGQGTLVTVSA
notes: Tested as a monoclonal phage clone (pComb3x phage display); Any phage fusion partner is not described; also called PD1-M944 scFv
binding result [4]: binds

B4: humanized antibody PD1-H944 (antibody, human IgG4 S228P, kappa)
heavy: not shown
light: EIVLTQSPATLSLSPGERATLSCRASESVDSYGNSFMHWYQQKPGQPPRLLIYAASNQGSGVPARFSGSGSGTDFTLTISSLEPEDFAMYFCQQSKEVPWTFGQGTKVEIKRTVAAPSVFIFPPSDEQLKSGTASVVCLLNNFYPREAKVQWKVDNALQSGNSQESVTEQDSKDSTYSLSSTLTLSKADYEKHKVYACEVTHQGLSSPVTKSFNRGEC
Kd [1]: 0.108 nM | binding result [5]: no binding (tested: 13.30 nM) | EC50 [6]: 0.0327 mg/L | binding relative to Nivolumab at 270 µg/mL [7]: ~1.62 times | binding result [8]: no binding (tested: 80 µg/mL)

— patent US20220002412A1 (SINOCELLTECH, published 2022)
